This test concerns the target T1, CK8 recombinant protein (human cytokeratin 8, tag sequence included) (human, UniProt P05787 1-483).
T1 construct: Expressed in E. coli BL21(DE3) as inclusion bodies, dissolved in 8 M urea/PBS; also called KRT8 Keratin, type II cytoskeletal 8
T1 sequence (looked up): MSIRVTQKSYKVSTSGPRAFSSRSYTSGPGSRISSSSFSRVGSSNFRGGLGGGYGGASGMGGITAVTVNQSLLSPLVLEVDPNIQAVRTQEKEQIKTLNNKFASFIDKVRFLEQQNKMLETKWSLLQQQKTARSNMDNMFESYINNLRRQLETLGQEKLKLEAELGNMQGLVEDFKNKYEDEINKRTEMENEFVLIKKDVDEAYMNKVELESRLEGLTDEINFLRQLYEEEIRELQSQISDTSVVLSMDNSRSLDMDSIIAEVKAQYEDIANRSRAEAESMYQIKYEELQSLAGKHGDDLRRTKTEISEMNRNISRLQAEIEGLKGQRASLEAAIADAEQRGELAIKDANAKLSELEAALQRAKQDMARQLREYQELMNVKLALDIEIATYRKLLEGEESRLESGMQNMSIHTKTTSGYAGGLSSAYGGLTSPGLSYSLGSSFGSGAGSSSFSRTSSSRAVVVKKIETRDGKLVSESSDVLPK
Nature of the test: overlay of recombinant protein solution (50 µg/ml) on blotted partner protein, read out by TAB-K94 reactivity.

B1: CK18 recombinant protein (human cytokeratin 18, tag sequence included) (other, UniProt P05783 1-430, looked up, not shown: small tags and cut ends)
chain: MSFTTRSTFSTNYRSLGSVQAPSYGARPVSSAASVYAGAGGSGSRISVSRSTSFRGGMGSGGLATGIAGGLAGMGGIQNEKETMQSLNDRLASYLDRVRSLETENRRLESKIREHLEKKGPQVRDWSHYFKIIEDLRAQIFANTVDNARIVLQIDNARLAADDFRVKYETELAMRQSVENDIHGLRKVIDDTNITRLQLETEIEALKEELLFMKKNHEEEVKGLQAQIASSGLTVEVDAPKSQDLAKIMADIRAQYDELARKNREELDKYWSQQIEESTTVVTTQSAEVGAAETTLTELRRTVQSLEIDLDSMRNLKASLENSLREVEARYALQMEQLNGILLHLESELAQTRAEGQRQAQEYEALLNIKVKLEAEIATYRRLLEDGEDFNLGDALDSSNSMQTIQKTTTRRIVDGKVVSETNDTKVLRH
notes: Expressed in E. coli BL21(DE3) as inclusion bodies, dissolved in 8 M urea/PBS; also called KRT18 Keratin, type I cytoskeletal 18
Turning to B1, the binding result was “binds”.
